This series has as its target thrombin (UniProt P00734;P00734 328-363;364-622). As to the kind of experiment: fluorescence recovery (FAM-TBA released from GO/capture DNA); FAM-TBA with capture DNA on PEG-blocked GO; thrombin 0.0025-15 nM; sensor LOD is not a Kd; GO 5 ug/mL, 10 nM FAM-DNA, 30 min incubation (covalent sensor); PBS listed in materials, PBS vs water compared in Fig. S6; pH, salt and temperature not in the m.

The text below walks through data of PMC9502102, “Thrombin Determination Using Graphene Oxide Sensors with Co-Assisted Amplification”.

B1: Thrombin binding aptamer (TBA) (ssDNA)
DNA: AAAAGTCCGTGGTAGGGCAGGTTGGGGTGACT
Turning to B1, the binding result was “binds”.
